One block for each binder: values may come before it.
Target: FLAG-tagged PACS-2 (UniProt Q86VP3 1-889)
Experiment: co-IP

Chain of FLAG-tagged PACS-2 (Q86VP3 whole entry): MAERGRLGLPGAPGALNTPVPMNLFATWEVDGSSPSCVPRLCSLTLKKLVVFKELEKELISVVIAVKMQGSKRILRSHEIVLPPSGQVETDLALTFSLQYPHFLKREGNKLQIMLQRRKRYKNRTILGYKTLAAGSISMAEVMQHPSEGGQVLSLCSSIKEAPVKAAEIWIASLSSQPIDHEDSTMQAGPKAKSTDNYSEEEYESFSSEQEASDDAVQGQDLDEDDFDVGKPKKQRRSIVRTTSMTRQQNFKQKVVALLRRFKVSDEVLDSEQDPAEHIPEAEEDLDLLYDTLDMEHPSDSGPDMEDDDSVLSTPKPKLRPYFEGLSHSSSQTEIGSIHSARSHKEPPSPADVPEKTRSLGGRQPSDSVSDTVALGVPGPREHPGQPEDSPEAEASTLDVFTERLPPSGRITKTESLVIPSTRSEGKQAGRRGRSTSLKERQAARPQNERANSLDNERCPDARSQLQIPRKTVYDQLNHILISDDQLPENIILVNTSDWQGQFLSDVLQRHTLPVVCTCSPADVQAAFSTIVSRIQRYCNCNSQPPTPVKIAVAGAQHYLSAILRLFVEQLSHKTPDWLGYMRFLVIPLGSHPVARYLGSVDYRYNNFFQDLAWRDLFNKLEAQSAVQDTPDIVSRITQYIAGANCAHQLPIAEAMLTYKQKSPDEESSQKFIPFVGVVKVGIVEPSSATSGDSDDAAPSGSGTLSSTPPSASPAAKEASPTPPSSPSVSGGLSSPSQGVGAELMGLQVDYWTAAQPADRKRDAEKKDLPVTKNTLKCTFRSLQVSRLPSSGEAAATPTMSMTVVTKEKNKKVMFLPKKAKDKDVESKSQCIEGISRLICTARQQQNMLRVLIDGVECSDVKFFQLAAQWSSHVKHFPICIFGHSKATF

fold enhancement of the co-IP in the presence of DBC1: > 8 fold
B1: V5-tagged mouse SIRT1 (enzyme, UniProt Q923E4 1-737, looked up)
chain: MADEVALALQAAGSPSAAAAMEAASQPADEPLRKRPRRDGPGLGRSPGEPSAAVAPAAAGCEAASAAAPAALWREAAGAAASAEREAPATAVAGDGDNGSGLRREPRAADDFDDDEGEEEDEAAAAAAAAAIGYRDNLLLTDGLLTNGFHSCESDDDDRTSHASSSDWTPRPRIGPYTFVQQHLMIGTDPRTILKDLLPETIPPPELDDMTLWQIVINILSEPPKRKKRKDINTIEDAVKLLQECKKIIVLTGAGVSVSCGIPDFRSRDGIYARLAVDFPDLPDPQAMFDIEYFRKDPRPFFKFAKEIYPGQFQPSLCHKFIALSDKEGKLLRNYTQNIDTLEQVAGIQRILQCHGSFATASCLICKYKVDCEAVRGDIFNQVVPRCPRCPADEPLAIMKPEIVFFGENLPEQFHRAMKYDKDEVDLLIVIGSSLKVRPVALIPSSIPHEVPQILINREPLPHLHFDVELLGDCDVIINELCHRLGGEYAKLCCNPVKLSEITEKPPRPQKELVHLSELPPTPLHISEDSSSPERTVPQDSSVIATLVDQATNNNVNDLEVSESSCVEEKPQEVQTSRNVENINVENPDFKAVGSSTADKNERTSVAETVRKCWPNRLAKEQISKRLEGNQYLFVPPNRYIFHGAEVYSDSEDDVLSSSSCGSNSDSGTCQSPSLEEPLEDESEIEEFYNGLEDDTERPECAGGSGFGADGGDQEVVNEAIATRQELTDVNYPSDKS

fold enhancement of the co-IP in the presence of DBC1: > 8 fold
B2: V5-tagged human SIRT1 (enzyme, UniProt Q96EB6 1-747, looked up)
chain: MADEAALALQPGGSPSAAGADREAASSPAGEPLRKRPRRDGPGLERSPGEPGGAAPEREVPAAARGCPGAAAAALWREAEAEAAAAGGEQEAQATAAAGEGDNGPGLQGPSREPPLADNLYDEDDDDEGEEEEEAAAAAIGYRDNLLFGDEIITNGFHSCESDEEDRASHASSSDWTPRPRIGPYTFVQQHLMIGTDPRTILKDLLPETIPPPELDDMTLWQIVINILSEPPKRKKRKDINTIEDAVKLLQECKKIIVLTGAGVSVSCGIPDFRSRDGIYARLAVDFPDLPDPQAMFDIEYFRKDPRPFFKFAKEIYPGQFQPSLCHKFIALSDKEGKLLRNYTQNIDTLEQVAGIQRIIQCHGSFATASCLICKYKVDCEAVRGDIFNQVVPRCPRCPADEPLAIMKPEIVFFGENLPEQFHRAMKYDKDEVDLLIVIGSSLKVRPVALIPSSIPHEVPQILINREPLPHLHFDVELLGDCDVIINELCHRLGGEYAKLCCNPVKLSEITEKPPRTQKELAYLSELPPTPLHVSEDSSSPERTSPPDSSVIVTLLDQAAKSNDDLDVSESKGCMEEKPQEVQTSRNVESIAEQMENPDLKNVGSSTGEKNERTSVAGTVRKCWPNRVAKEQISRRLDGNQYLFLPPNRYIFHGAEVYSDSEDDVLSSSSCGSNSDSGTCQSPSLEEPMEDESEIEEFYNGLEDEPDVPERAGGAGFGTDGDDQEAINEAISVKQEVTDMNYPSNKS
